Results: patent CN112851810A (BEIJING GUANGWEI BIOTECHNOLOGY CO LTD, dated 2021)

T1: 人CD20 (human CD20) (human, UniProt P11836 1-297, limits assumed)
T1 construct: also called 人CD20蛋白; 抗原
T1 sequence (looked up): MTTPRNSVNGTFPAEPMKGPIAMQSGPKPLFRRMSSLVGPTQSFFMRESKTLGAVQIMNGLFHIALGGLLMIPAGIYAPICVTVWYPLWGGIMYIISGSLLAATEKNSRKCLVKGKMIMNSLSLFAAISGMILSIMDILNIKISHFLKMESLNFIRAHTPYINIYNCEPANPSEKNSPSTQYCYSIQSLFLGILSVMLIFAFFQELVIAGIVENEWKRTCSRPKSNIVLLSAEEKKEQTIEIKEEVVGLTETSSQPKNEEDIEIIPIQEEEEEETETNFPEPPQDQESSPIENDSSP


Biological target: T1, 人CD20 (human CD20)
Test: SPR (CM5 chip, antibody captured by anti-human capture antibody, antigen as analyte from 10 nM)

Binder | Kd [nM] | koff [s⁻¹] | kon [M⁻¹ s⁻¹]
Rituximab (antibody, V domains shown) VH: QVQLQQPGAELVKPGASVKMSCKASGYTFTSYNMHWVKQTPGRGLEWIGAIYPGNGDTSYNQKFKGKATLTADKSSSTAYMQLSSLTSEDSAVYYCARSTYYGGDWYFNVWGAGTTVTVSA VL: QIVLSQSPAILSASPGEKVTMTCRASSSVSYIHWFQQKPGSSPKPWIYATSNLASGVPVRFSGSGSGTSYSLTISRVEAEDAATYYCQQWTSNPPTFGGGTKLEIK | 5.46 | 0.000345 | 63100
h12H7-IgG1 (antibody, V domains shown) VH: QVQLVQSGAEVKKPGASVKVSCKASDYTFTSYAGKWVRQAPGQGLEWIGAIPTKGNDTSYNQFLKGRVTMTADTSTSTVYMELSSLRSEDTAVYYCAKGIDGCNFDYWGQGTTVTVSS VL: DIQMTQSPSSVSASVGDRVTITCKASQRVATGVAWYQQKPGKAPKALIYSAIGNRTGVPSRFSGSGSGTDFTLTISSLQPEDFATYYCQQASKIDAYPTFGQGTKLEIK | 0.307 | 4.21e-05 | 137000
